For two substances, stoichiometry N results are on record in publication PMC10917881, “Biochemical characterization of L-asparaginase isoforms from Rhizobium etli—the boosting effect of zinc” (Frontiers in Chemistry, 2024).

The target of assay [1] is Rhizobium etli L-asparaginase ReAIV (constitutive, thermostable), wild type (Rhizobium etli). The experiment in a line: mass photometry; Refeyn One mass photometer; protein diluted to 20-50 nM; buffers 50 mM Tris-HCl pH 8.0 or 30 mM carbonate pH 9.0; absence or presence of Zn2+ and/or Mg2+; dimer to monomers.
Assay [2] addresses Rhizobium etli L-asparaginase ReAV (inducible, thermolabile), wild type (Rhizobium etli). The assay is described as above.

For the substance “Rhizobium etli L-asparaginase ReAIV (constitutive, thermostable), wild type (enzyme)”, the stoichiometry N in assay [1] is 2.
For “Rhizobium etli L-asparaginase ReAV (inducible, thermolabile), wild type (enzyme)”, in assay [2], the stoichiometry N is 2.

What is called stoichiometry N is the number of molecules, sites or subunits per partner or assembly.
